Biological target: Recombinant SARS-CoV-2 S1 (SARS-CoV-2)
Test: MST

Row | Binder | Kd
1 | Recombinant DC-SIGN/CD209 (receptor) QVSKVPSSISQEQSRQDAIYQNLTQLKAAVGELSEKSKLQEIYQELTQLKAAVGELPEKSKLQEIYQELTRLKAAVGELPEKSKLQEIYQELTWLKAAVGELPEKSKMQEIYQELTRLKAAVGELPEKSKQQEIYQELTRLKAAVGELPEKSKQQEIYQELTRLKAAVGELPEKSKQQEIYQELTQLKAAVERLCHPCPWEWTFFQGNCYFMSNSQRNWHDSITACKEVGAQLVVIKSAEEQNFLQLQSSRSNRFTWMGLSDLNQEGTWQWVDGSPLLPSFKQYWNRGEPNNVGEEDCAEFSGNGWNDDKCNLAKFWICKKSAASCSRDEEQFLSPAPATPNPPPA | 3.76 nM
2 | Recombinant L-SIGN/CD299 (receptor) QVSKVPSSLSQEQSEQDAIYQNLTQLKAAVGELSEKSKLQEIYQELTQLKAAVGELPEKSKLQEIYQELTRLKAAVGELPEKSKLQEIYQELTRLKAAVGELPEKSKLQEIYQELTRLKAAVGELPEKSKLQEIYQELTELKAAVGELPEKSKLQEIYQELTQLKAAVGELPDQSKQQQIYQELTDLKTAFERLCRHCPKDWTFFQGNCYFMSNSQRNWHDSVTACQEVRAQLVVIKTAEEQNFLQLQTSRSNRFSWMGLSDLNQEGTWQWVDGSPLSPSFQRYWNSGEPNNSGNEDCAEFSGSGWNDNRCDVDNYWICKKPAACFRDE | 3.27 nM
